The series addresses T1, CYS3 transcriptional activator (Neurospora crassa, UniProt P22697 1-236).
T1 sequence: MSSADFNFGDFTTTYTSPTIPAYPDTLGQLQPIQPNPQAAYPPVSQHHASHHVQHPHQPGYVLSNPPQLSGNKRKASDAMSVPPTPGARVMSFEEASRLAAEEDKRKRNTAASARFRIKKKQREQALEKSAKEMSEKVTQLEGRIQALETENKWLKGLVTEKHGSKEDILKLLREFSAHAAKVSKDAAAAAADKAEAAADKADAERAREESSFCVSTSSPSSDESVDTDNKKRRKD
Kind of series: EMSA; Binding buffer not given (refs 14,20); 4% PAGE in 50 mM Tris-80 mM glycine-2 mM EDTA pH 8.5, 20 mA, 4 C. Particulars: protein: recombinant; chain copies: 2; label: 32P (T4 PNK); blunt. In general terms: Mobility shift assays separate free from complexed probe on a gel.

B1: cys-16+ Site 3 (dsDNA)
DNA 1: AACCTGAATTGCGCCATAGCCAAA
DNA 2: TTTGGCTATGGCGCAATTCAGGTT
For the molecule B1, the binding result was “binds”.

The values above are taken from paper PMC3496659, “Analysis of the sulfur-regulated control of the cystathionine γ-lyase gene of Neurospora crassa”.
